The values that follow are results of earlier work, collected in article PMC5803174.

Series [1] addresses beta-cardiac myosin proximal S2 (Homo sapiens) (UniProt P12883).
In series [2] the target is beta-cardiac myosin short S1 (Homo sapiens) (UniProt P12883).

For orientation: Kd means the concentration at which binding is half-saturated. For MyBP-C C1-C2 (from UniProt Q14896), the dissociation constant Kd in series [1] is 5 µM.
For cardiac MyBP-C (from UniProt Q14896), the Kd in series [2] is 17.5 µM.
